Reference: the Immune Epitope Database (IEDB)

Columns and labels:
HLA-A*30:01 = assay: IEDB peptide-MHC binding, purified MHC/competitive/radioactivity; filed as Kd, often an IC50 or EC50 that approximates it; ≥ and ≤ were set here for values at or beyond the usual limits of such assays
HLA-A*31:01 [1] = assay: as above
HLA-B*44:02 = assay: as above
HLA-B*40:01 = assay: as above
HLA-B*15:01 = assay: as above
HLA-A*33:01 = assay: as above; details: source organism: Vaccinia virus WR
HLA-A*68:01 = assay: as above; details: source organism: Vaccinia virus WR
HLA-A*03:01 [2] = assay: as above; details: source organism: Vaccinia virus WR
HLA-A*11:01 [3] = assay: as above; details: source organism: Vaccinia virus WR
HLA-A*02:01 [4] = assay: IEDB peptide-MHC binding, purified MHC/competitive/fluorescence; filed as Kd, often an IC50 or EC50 that approximates it; ≥ and ≤ were set here for values at or beyond the usual limits of such assays
HLA-A*02:01 [5] = assay: IEDB peptide-MHC binding, purified MHC/competitive/radioactivity; filed as Kd, often an IC50 or EC50 that approximates it; ≥ and ≤ were set here for values at or beyond the usual limits of such assays
HLA-A*24:02 = assay: IEDB peptide-MHC binding, purified MHC/competitive/fluorescence; ≥ and ≤ were set here for values at or beyond the usual limits of such assays
HLA-A*02:03 = assay: IEDB peptide-MHC binding, purified MHC/competitive/radioactivity; filed as Kd, often an IC50 or EC50 that approximates it; ≥ and ≤ were set here for values at or beyond the usual limits of such assays; details: source organism: Dengue virus 3 Martinique/1243/1999
HLA-B*44:03 = assay: as above
HLA-A*02:01 [6] = assay: IEDB peptide-MHC binding, purified MHC/competitive/fluorescence; ≥ and ≤ were set here for values at or beyond the usual limits of such assays; details: source organism: Zaire ebolavirus
HLA-A*32:01 = assay: IEDB peptide-MHC binding, purified MHC/competitive/radioactivity; filed as Kd, often an IC50 or EC50 that approximates it; ≥ and ≤ were set here for values at or beyond the usual limits of such assays
HLA-A*01:01 = assay: as above
HLA-A*26:01 = assay: as above
HLA-A*29:02 = assay: as above
HLA-A*30:02 = assay: as above
HLA-B*27:05 = assay: IEDB peptide-MHC binding, purified MHC/direct/fluorescence; filed as Kd, often an IC50 or EC50 that approximates it; ≥ and ≤ were set here for values at or beyond the usual limits of such assays; details: source organism: Homo sapiens
HLA-A*11:01 [7] = assay: as above; details: source organism: Homo sapiens
HLA-A*31:01 [8] = assay: as above; details: source organism: Rickettsia prowazekii
HLA-A*03:01 [9] = assay: as above; details: source organism: Rickettsia prowazekii
[10] = source organism: Dengue virus 2 Jamaica/1409/1983
[11] = source organism: Dengue virus 1 Brazil/97-11/1997
[12] = source organism: Vaccinia virus WR
[13] = source organism: Dengue virus 4 Philippines/H241/1956
[14] = source organism: Zaire ebolavirus
[15] = source organism: Dengue virus 4 Dominica/814669/1981
[16] = source organism: Mammarenavirus guanaritoense
[17] = source organism: Mammarenavirus whitewaterense

Sequence KSKAINVLR has a Kd (HLA-A*30:01; [10]) of 103 nM and a Kd (HLA-A*31:01 [1]; [10]) of 1.1 nM.

Work on AEALKGMPI yielded a Kd (HLA-B*44:02; [11]) of 1.01 nM and a Kd (HLA-B*40:01; [11]) of 122 nM.

For LVYKKMQSY, the Kd (HLA-B*15:01; [12]) was 45.7 nM.

For EEEEQTLTI, the Kd (HLA-B*40:01; [10]) was 103 nM.

In the case of LMNKENAEM, the Kd (HLA-B*15:01; [12]) is reported as 7.7 nM.

Sequence MQKFTILEY has a Kd (HLA-A*33:01) of at least 54500 nM, a Kd (HLA-A*68:01) of 10800 nM and a Kd (HLA-B*15:01; [12]) of 10.1 nM. The Kd (HLA-A*31:01 [1]; [12]) was 174 nM, the Kd (HLA-A*03:01 [2]) was 470 nM and the Kd (HLA-A*11:01 [3]) was 39.8 nM.

Sequence KLVVVAVGV has a Kd (HLA-A*02:01 [4]; source organism: Schaalia radingae) of 10 nM.

Sequence LRVLSIPPTA has a Kd (HLA-A*30:01; [13]) of 3500 nM.

PLGLVDLFV was tested, and the Kd (HLA-A*02:01 [5]; source organism: Lassa virus Josiah) was 4170 nM.

For SLKDVLVSV, the Kd (HLA-A*02:01 [4]; source organism: Horsepox virus) was 3.6 nM.

RFTPQFLLQ was tested, and the IC50 (HLA-A*24:02; [14]) was 4080 nM.

For YLKKKNHPL, the Kd (HLA-A*02:01 [4]; source organism: Bacillus cereus G9241) was 6 nM.

GLFGKGSLV gave a Kd (HLA-A*02:01 [5]; source organism: dengue virus type 3) of 2.9 nM and a Kd (HLA-A*02:03) of 2.92 nM.

In the case of AENTNSVTNI, the Kd (HLA-B*44:02; [15]) is reported as 130 nM, the Kd (HLA-B*44:03; [15]) is reported as 372 nM and the Kd (HLA-B*40:01; [15]) is reported as 461 nM.

Work on IHQGMHMVA yielded an IC50 (HLA-A*02:01 [6]) of at least 84700 nM and an IC50 (HLA-A*24:02; [14]) of at least 185000 nM.

With KAYHIIFFV the Kd (HLA-A*30:01; [12]) was 405 nM.

Sequence KLFSDISAI has a Kd (HLA-A*02:01 [4]; source organism: Vaccinia virus) of 2.2 nM.

With EDDRERLKV the IC50 (HLA-A*24:02; source organism: Variola virus) was 16.8 nM.

Work on VLSPTIGHV yielded a Kd (HLA-A*02:01 [4]; [12]) of 4 nM.

For VLENFTILLV, the Kd (HLA-A*02:01 [5]; source organism: Homo sapiens) was 527 nM.

With KEEYVDYMPV the Kd (HLA-B*40:01; [13]) was 68.7 nM.

Sequence ISRNKNIFV has a Kd (HLA-A*30:01; [12]) of 7.28 nM.

For LMALKLITQF, the Kd (HLA-B*15:01; source organism: Dengue virus 3 Martinique/1243/1999) was 149 nM.

SEFNTYKRSG gave a Kd (HLA-B*44:02; [11]) of 2170 nM, a Kd (HLA-B*44:03; [11]) of 7050 nM and a Kd (HLA-B*40:01; [11]) of 8760 nM.

Sequence MEEALRGLPI has a Kd (HLA-B*44:02; [10]) of 29.3 nM, a Kd (HLA-B*44:03; [10]) of 1110 nM and a Kd (HLA-B*40:01; [10]) of 54.2 nM.

ELLSYCVSLF was tested, and the Kd (HLA-A*32:01; [16]) was 2640 nM, the Kd (HLA-A*01:01; [16]) was 261 nM and the Kd (HLA-A*26:01; [16]) was 99.3 nM. It also gave a Kd (HLA-A*30:01; [16]) of 1060 nM, a Kd (HLA-A*29:02; [16]) of 5800 nM and a Kd (HLA-A*30:02; [16]) of 9750 nM.

Work on CRSCTMPPLR yielded a Kd (HLA-A*30:01; [13]) of 1530 nM.

TGILQLPRD gave an IC50 (HLA-A*02:01 [6]) of at least 584000 nM and an IC50 (HLA-A*24:02; [14]) of at least 506000 nM.

For RIRQQLPLY, the Kd (HLA-A*33:01) was at least 77700 nM, the Kd (HLA-A*68:01) was 1190 nM and the Kd (HLA-A*30:01; [12]) was 12.8 nM. For the same sequence, the Kd (HLA-A*31:01 [1]; [12]) was 773 nM, the Kd (HLA-A*03:01 [2]) was 21.5 nM and the Kd (HLA-A*11:01 [3]) was 553 nM.

Work on MVLPGAANK yielded a Kd (HLA-A*30:01; [12]) of 58.9 nM.

With KSKNINIEV the Kd (HLA-A*30:01; [12]) was 0.324 nM.

In the case of ESRFTPQFL, the IC50 (HLA-A*24:02; [14]) is reported as 22400 nM.

Sequence GRNSFEVRV has a Kd (HLA-B*27:05) of 1060 nM and a Kd (HLA-A*11:01 [7]) of at least 37700 nM.

Work on YVNHTGFNV yielded a Kd (HLA-A*32:01; [17]) of at least 77800 nM, a Kd (HLA-A*01:01; [17]) of 5880 nM and a Kd (HLA-A*26:01; [17]) of at least 53600 nM. The Kd (HLA-A*30:01; [17]) was 1240 nM, the Kd (HLA-A*29:02; [17]) was 2470 nM and the Kd (HLA-A*30:02; [17]) was at least 76900 nM.

MVRLTTQGL showed a Kd (HLA-A*30:01; source organism: Vaccinia virus Copenhagen) of 8.32 nM.

For KWLKIITPK, the Kd (HLA-A*31:01 [8]) was 217 nM and the Kd (HLA-A*03:01 [9]) was at least 20000 nM.
